Data: US12723255B2, “Herbicide tolerance genes and methods of use thereof” (priority 2014, dated 2026)

Assays:
[1] = assay type: biochemical
Outline: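 Quizalofop-P or 2,4-D was the substrate. All components were pre-heated 5 min at the test temperature, and the reaction was held there throughout. Activity was normalized to 25 °C readings (wild-type enzyme at 25 °C for the in-depth set), and T1/2 is the temperature giving half-maximal activity.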

F1 hybrid maize plants [2] = experiment: efficacy field trial for quizalofop-P tolerance and clethodim sensitivity; assay type: in vivo; details: for tolerance to the quizalofop-P application: 1.28 lb ai/acre (16×); for average injury rating, V4 Growth Stage, 4x Quizalofop / average injury rating, V8 Growth Stage, 4x Quizalofop / average injury rating, V4 Growth Stage, 8x Quizalofop / average injury rating, V8 Growth Stage, 8x Quizalofop / average injury rating, V4 Growth Stage, 16x Quizalofop / average injury rating, V8 Growth Stage, 16x Quizalofop / average injury rating, V8 Growth Stage, 1x Clethodim: scale 0 to 100; for average injury rating, V4 Growth Stage, 4x Quizalofop / average injury rating, V8 Growth Stage, 4x Quizalofop: 0.32 lb ai/acre at VE-V2, V4, V8; for average injury rating, V4 Growth Stage, 4x Quizalofop / average injury rating, V8 Growth Stage, 4x Quizalofop / average injury rating, V4 Growth Stage, 8x Quizalofop / average injury rating, V8 Growth Stage, 8x Quizalofop / average injury rating, V4 Growth Stage, 16x Quizalofop / average injury rating, V8 Growth Stage, 16x Quizalofop: with CTP unless label says no CTP; for average injury rating, V4 Growth Stage, 8x Quizalofop / average injury rating, V8 Growth Stage, 8x Quizalofop: 0.64 lb ai/acre at VE-V2, V4, V8; for average injury rating, V4 Growth Stage, 16x Quizalofop / average injury rating, V8 Growth Stage, 16x Quizalofop: 1.28 lb ai/acre at VE-V2, V4, V8; for average injury rating, V8 Growth Stage, 1x Clethodim: clethodim 0.25 lb ai/acre at V8, volunteer control
Outline: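 F1 hybrids of MON89034 × R1 plants carrying MON-HT constructs, NK603×MON89034 control, at two sites. Quizalofop-P at 0.32, 0.64 or 1.28 lb ai/acre + 0.25% v/v NIS at VE-V2, V4 and V8; clethodim 0.25 lb ai/acre + NIS at V8. Injury rated visually 0–100 at 10-14 days after application.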

F1 hybrid maize plants [3] = experiment: trait efficacy field trial, quizalofop-P pressure screening, F1 hybrid; assay type: in vivo; details: crop injury percentage; for 4X Qizalofop-P CIPV4 / 4X Qizalofop-P CIPV8: 0.32 lb ai/acre at VE-V2, V4, V8; for 8X Qizalofop-P CIPV4 / 8X Qizalofop-P CIPV8: 0.64 lb ai/acre at VE-V2, V4, V8; for 16X Qizalofop-P CIPV4 / 16X Qizalofop-P CIPV8: 1.28 lb ai/acre at VE-V2, V4, V8
Outline: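 Single-location field trial on F1 hybrids (MON89034 inbred × R1 HT-event plants, with/without CTP); NK603×MON89034 hybrids as control. Quizalofop-P at 0.32, 0.64 or 1.28 lb ai/acre (4×, 8×, 16×) plus 0.25% v/v NIS, applied at VE-V2, V4 and V8. Plots visually rated for injury; LSD (0.05).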

F1 hybrid maize plants [4] = experiment: efficacy field trial for 2,4-D tolerance; assay type: in vivo; details: for average injury rating, V4 Growth Stage, 4x 2,4-D / average injury rating, V8 Growth Stage, 4x 2,4-D: 4 lb ae/acre at VE-V2, V4, V8; for average injury rating, V4 Growth Stage, 8x 2,4-D / average injury rating, V8 Growth Stage, 8x 2,4-D: 8 lb ae/acre at VE-V2, V4, V8; for average injury rating, V4 Growth Stage, 16x 2,4-D / average injury rating, V8 Growth Stage, 16x 2,4-D: 16 lb ae/acre at VE-V2, V4, V8
Outline: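 F1 hybrid maize carrying MON89034 crossed with MON-HT events, NK603×MON89034 hybrids as control, grown at two field locations. 2,4-D amine at 2, 4, 8 or 16 lb ac/acre plus 0.25% v/v NIS applied at VE-V2, V4 and V8; plots visually rated for injury after V4 and V8 applications.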

[5] = scale 0 to 100, 2 lb ae/acre at VE-V2, V4, V8, with CTP unless label says no CTP
[6] = scale 0 to 100, with CTP unless label says no CTP
[7] = scale 0 to 100, with CTP unless label says no CTP, listed as MON-HT2 (no CTP)

B1: MON-HT2: engineered oxygenase protein, amino acid sequence SEQ ID NO:18 (protein)
chain: MHAALTPLTNKYRFIDVQPLTGVLGAEITGVDLREPLDDSTWNEILDAFHTYQVIYFPGQAITNEQHIAFSRRFGPVDPVPLLKSIEGYPEVQMIRREANESSRVIGDDWHSDSTFLDAPPAAVVMRAIEVPEYGGDTGFLSMYSAWETLSPTMQATIEGLNVVHSATKVFGSLYQATNWRFSNTSVKVMDVDAGDRETVHPLVVTHPVTGRRALYCNQVYCQKIQGMTDAESKSLLQFLYEHATKFDFTCRVRWKKDQVLVWDNLCTMHRAAPDYAGKFRYLTRTTVAGDKPSR
[1]
  T1/2, temperature at which the enzyme activity was half of maximum: 46 °C
[1]; substrate 2,4-D, lower T1/2 than wild-type
  temperature sensitivity compared with the wild-type enzyme: slightly more temperature sensitive
F1 hybrid maize plants [2]; operably linked to a CTP, FIG. 5A
  tolerance to the quizalofop-P application: robust tolerance
F1 hybrid maize plants [2]
  average injury rating, V4 Growth Stage, 4x Quizalofop: 1.5
  average injury rating, V8 Growth Stage, 4x Quizalofop: 2.5
  average injury rating, V4 Growth Stage, 8x Quizalofop: 0.8
  average injury rating, V8 Growth Stage, 8x Quizalofop: 3.8
  average injury rating, V4 Growth Stage, 16x Quizalofop: 10.0
  average injury rating, V8 Growth Stage, 16x Quizalofop: 4.8
  average injury rating, V8 Growth Stage, 1x Clethodim: 93.3
F1 hybrid maize plants [2]; listed as MON-HT2 (no CTP)
  average injury rating, V4 Growth Stage, 4x Quizalofop: 42.5
  average injury rating, V8 Growth Stage, 4x Quizalofop: 16.3
  average injury rating, V4 Growth Stage, 8x Quizalofop: 76.3
  average injury rating, V8 Growth Stage, 8x Quizalofop: 52.5
  average injury rating, V4 Growth Stage, 16x Quizalofop: 82.5
  average injury rating, V8 Growth Stage, 16x Quizalofop: 77.5
  average injury rating, V8 Growth Stage, 1x Clethodim: 92.0
F1 hybrid maize plants [2]; without a CTP, FIG. 5B
  tolerance to the quizalofop-P application: moderate to poor tolerance
F1 hybrid maize plants [3]; CTP A
  4X Qizalofop-P CIPV4: 0
  4X Qizalofop-P CIPV8: 5
  8X Qizalofop-P CIPV4: 2.5
  8X Qizalofop-P CIPV8: 7.5
  16X Qizalofop-P CIPV4: 5
  16X Qizalofop-P CIPV8: 15
F1 hybrid maize plants [3]; CTP B
  4X Qizalofop-P CIPV4: 0
  4X Qizalofop-P CIPV8: 5
  8X Qizalofop-P CIPV4: 0
  8X Qizalofop-P CIPV8: 10
  16X Qizalofop-P CIPV4: 0
  16X Qizalofop-P CIPV8: 20
F1 hybrid maize plants [3]; CTP C
  4X Qizalofop-P CIPV4: 0
  4X Qizalofop-P CIPV8: 5
  8X Qizalofop-P CIPV4: 5
  8X Qizalofop-P CIPV8: 12.5
  16X Qizalofop-P CIPV4: 12.5
  16X Qizalofop-P CIPV8: 20
F1 hybrid maize plants [3]; no CTP
  4X Qizalofop-P CIPV4: 35
  4X Qizalofop-P CIPV8: 45
  8X Qizalofop-P CIPV4: 50
  8X Qizalofop-P CIPV8: 37.5
  16X Qizalofop-P CIPV4: 70
  16X Qizalofop-P CIPV8: 55
F1 hybrid maize plants [4]; [5]
  average injury rating, V4 Growth Stage, 2x 2,4-D: 1.3
  average injury rating, V8 Growth Stage, 2x 2,4-D: 2.5
F1 hybrid maize plants [4]; scale 0 to 100, 2 lb ae/acre at VE-V2, V4, V8, with CTP unless label says no CTP, listed as MON-HT2 (no CTP)
  average injury rating, V8 Growth Stage, 2x 2,4-D: 5.0
F1 hybrid maize plants [4]; [6]
  average injury rating, V4 Growth Stage, 4x 2,4-D: 0.0
  average injury rating, V8 Growth Stage, 4x 2,4-D: 3.3
  average injury rating, V4 Growth Stage, 8x 2,4-D: 4.5
  average injury rating, V8 Growth Stage, 8x 2,4-D: 10.0
  average injury rating, V4 Growth Stage, 16x 2,4-D: 7.5
  average injury rating, V8 Growth Stage, 16x 2,4-D: 15.0
F1 hybrid maize plants [4]; [7]
  average injury rating, V4 Growth Stage, 4x 2,4-D: 2.5
  average injury rating, V8 Growth Stage, 4x 2,4-D: 8.8
  average injury rating, V4 Growth Stage, 8x 2,4-D: 13.8
  average injury rating, V8 Growth Stage, 8x 2,4-D: 13.8
  average injury rating, V4 Growth Stage, 16x 2,4-D: 21.3
  average injury rating, V8 Growth Stage, 16x 2,4-D: 25.0
F1 hybrid maize plants [4]; without the CTP
  injury rating after 2,4-D application at V4 growth stage at 8×: 13.75%
  injury rating after 2,4-D application at V4 growth stage at 16×: 21.25%
